From patent publication US20180155451A1 (published 2018)

T1: FcγRIIb extracellular domain with C-terminal His tag (human, UniProt P31994 43-217)
T1 construct: extracellular domain; also called FcgRIIb; 2b; not shown: His tag at the C terminus
T1 sequence (looked up): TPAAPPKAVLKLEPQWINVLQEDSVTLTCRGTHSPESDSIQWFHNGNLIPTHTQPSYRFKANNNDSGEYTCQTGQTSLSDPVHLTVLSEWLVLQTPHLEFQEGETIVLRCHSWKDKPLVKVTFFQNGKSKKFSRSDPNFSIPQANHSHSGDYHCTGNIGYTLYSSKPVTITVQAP

T2: FcγRIIa R (human, UniProt P12318 34-217)
T2 construct: extracellular domain; also called FcgRIIa R type; 2aR
T2 sequence (looked up): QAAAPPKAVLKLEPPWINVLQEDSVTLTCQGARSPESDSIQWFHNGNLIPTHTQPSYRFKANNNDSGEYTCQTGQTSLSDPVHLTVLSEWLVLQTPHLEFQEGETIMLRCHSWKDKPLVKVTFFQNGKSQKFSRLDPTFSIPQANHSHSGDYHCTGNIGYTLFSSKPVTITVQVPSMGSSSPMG

T3: FcγRIIb (human, UniProt P31994 43-217)
T3 construct: extracellular domain; also called FcgRIIb; 2b
T3 sequence (looked up): T1 sequence (looked up)

B1: GpH7-A5/GpH7-B3 variant P238_03V/GpL16-k0 (heterodimerized antibody, He Ab) (antibody, human IgG1, kappa)
heavy 1: not shown
heavy 2: not shown
light: DIVMTQSPLSLPVTPGEPASISCQASESLVHSNRNTYLHWYLQKPGQSPQLLIYKVSNRFSGVPDRFSGSGSGTDFTLKISRVEAEDVGVYYCSQNTHVPPTFGQGTKVEIERTVAAPSVFIFPPSDEQLKSGTASVVCLLNNFYPREAKVQWKVDNALQSGNSQESVTEQDSKDSTYSLSSTLTLSKADYEKHKVYACEVTHQGLSSPVTKSFNRGEC
notes: Anti-glypican-3 IgG1; the alteration is in the GpH7-B3 chain only; also called P238V
B2: GpH7-A5/GpH7-B3 variant G237_02A/GpL16-k0 (heterodimerized antibody, He Ab) (antibody, human IgG1, kappa)
heavy 1: not shown
heavy 2: not shown
light: B1 light
notes: Anti-glypican-3 IgG1; the alteration is in the GpH7-B3 chain only; also called G237A
B3: GpH7-A5/GpH7-B3 variant G237_10E/GpL16-k0 (heterodimerized antibody, He Ab) (antibody, human IgG1, kappa)
heavy 1: not shown
heavy 2: not shown
light: B1 light
notes: Anti-glypican-3 IgG1; the alteration is in the GpH7-B3 chain only; also called G237E
B4: GpH7-A5/GpH7-B3 variant G237_04F/GpL16-k0 (heterodimerized antibody, He Ab) (antibody, human IgG1, kappa)
heavy 1: not shown
heavy 2: not shown
light: B1 light
notes: Anti-glypican-3 IgG1; the alteration is in the GpH7-B3 chain only; also called G237F
B5: GpH7-A5/GpH7-B3 variant G237_15Y/GpL16-k0 (heterodimerized antibody, He Ab) (antibody, human IgG1, kappa)
heavy 1: not shown
heavy 2: not shown
light: B1 light
notes: Anti-glypican-3 IgG1; the alteration is in the GpH7-B3 chain only; also called G237Y
B6: GpH7-A5/GpH7-B3 variant G236_18N/GpL16-k0 (heterodimerized antibody, He Ab) (antibody, human IgG1, kappa)
heavy 1: not shown
heavy 2: not shown
light: B1 light
notes: Anti-glypican-3 IgG1; the alteration is in the GpH7-B3 chain only; also called G236N
B7: GpH7-A5/GpH7-B3 variant G236_10E/GpL16-k0 (heterodimerized antibody, He Ab) (antibody, human IgG1, kappa)
heavy 1: not shown
heavy 2: not shown
light: B1 light
notes: Anti-glypican-3 IgG1; the alteration is in the GpH7-B3 chain only; also called G236E
B8: GpH7-A5/GpH7-B3 variant G237_05P/GpL16-k0 (heterodimerized antibody, He Ab) (antibody, human IgG1, kappa)
heavy 1: not shown
heavy 2: not shown
light: B1 light
notes: Anti-glypican-3 IgG1; the alteration is in the GpH7-B3 chain only; also called G237P
B9: GpH7-A5/GpH7-B3 variant G237_16H/GpL16-k0 (heterodimerized antibody, He Ab) (antibody, human IgG1, kappa)
heavy 1: not shown
heavy 2: not shown
light: B1 light
notes: Anti-glypican-3 IgG1; the alteration is in the GpH7-B3 chain only; also called G237H
B10: GpH7-A5/GpH7-B3 variant G236_11K/GpL16-k0 (heterodimerized antibody, He Ab) (antibody, human IgG1, kappa)
heavy 1: not shown
heavy 2: not shown
light: B1 light
notes: Anti-glypican-3 IgG1; the alteration is in the GpH7-B3 chain only; also called G236K
B11: GpH7-A5/GpH7-B3 variant G237_08L/GpL16-k0 (heterodimerized antibody, He Ab) (antibody, human IgG1, kappa)
heavy 1: not shown
heavy 2: not shown
light: B1 light
notes: Anti-glypican-3 IgG1; the alteration is in the GpH7-B3 chain only; also called G237L
B12: GpH7-A5/GpH7-B3 variant G237_13S/GpL16-k0 (heterodimerized antibody, He Ab) (antibody, human IgG1, kappa)
heavy 1: not shown
heavy 2: not shown
light: B1 light
notes: Anti-glypican-3 IgG1; the alteration is in the GpH7-B3 chain only; also called G237S
B13: GpH7-A5/GpH7-B3 variant G237_06M/GpL16-k0 (heterodimerized antibody, He Ab) (antibody, human IgG1, kappa)
heavy 1: not shown
heavy 2: not shown
light: B1 light
notes: Anti-glypican-3 IgG1; the alteration is in the GpH7-B3 chain only; also called G237M
B14: GpH7-A5/GpH7-B3 variant G237_09D/GpL16-k0 (heterodimerized antibody, He Ab) (antibody, human IgG1, kappa)
heavy 1: not shown
heavy 2: not shown
light: B1 light
notes: Anti-glypican-3 IgG1; the alteration is in the GpH7-B3 chain only; also called G237D
B15: GpH7-A5/GpH7-B3 variant G236_09D/GpL16-k0 (heterodimerized antibody, He Ab) (antibody, human IgG1, kappa)
heavy 1: not shown
heavy 2: not shown
light: B1 light
notes: Anti-glypican-3 IgG1; the alteration is in the GpH7-B3 chain only; also called G236D
B16: GpH7-A5/GpH7-B3 variant G236_13S/GpL16-k0 (heterodimerized antibody, He Ab) (antibody, human IgG1, kappa)
heavy 1: not shown
heavy 2: not shown
light: B1 light
notes: Anti-glypican-3 IgG1; the alteration is in the GpH7-B3 chain only; also called G236S
B17: GpH7-A5/GpH7-B3 variant Q295_12R/GpL16-k0 (antibody, human IgG1, kappa)
heavy 1: not shown
heavy 2: not shown
light: B1 light
notes: heterodimerized antibody, mutation in the GpH7-B3 chain only; also called He Ab

molecular target: T1, FcγRIIb extracellular domain with …; experiment: SPR (Biacore), captured antibody, FcγR as analyte; relative to GpH7-A5/GpH7-B3/GpL16-k0 = 100
Experimental: (§1) Analysis of interaction between objective antibody and the FcγR was carried out using Biacore T100 (GE Healthcare). HBS-EP+ (GE Healthcare) was used as the running buffer, and the measurement temperature was set to 25° C. Chips produced by immobilizing the antigen peptide by the amine coupling method to a Series S Sencor Chip CM5 (GE Healthcare), or alternatively, chips produced by allowing preliminarily biotinylated antigen peptides to interact with and immobilize onto a Series S Sensor Chip SA (certified) (GE Healthcare) were used. Antibodies of interest were captured onto an antigen peptide-immobilized chip, and allowed to interact to each FcγR diluted with running buffer. To regenerate and repeatedly use the chip, the antibodies captured on the chip were washed off by reacting 10 mM glycine-HCl, pH 1.5.
(§2) The FcγR-binding activity of each antibody was assessed primarily using as an indicator the FcγR-binding activity and dissociation constant for FcγR.

| He/Con_2b (IIb binding) | Binder |
| --- | --- |
| 120 % of HeCon Ab | B1 |
| 124 % of HeCon Ab | B2 |
| 114 % of HeCon Ab | B3 |
| 149 % of HeCon Ab | B4 |
| 152 % of HeCon Ab | B5 |
| 96.4 % of HeCon Ab | B6 |
| 110 % of HeCon Ab | B7 |
| 24.6 % of HeCon Ab | B8 |
| 55.2 % of HeCon Ab | B9 |
| 49.8 % of HeCon Ab | B10 |
| 148 % of HeCon Ab | B11 |
| 111 % of HeCon Ab | B12 |
| 130 % of HeCon Ab | B13 |
| 223 % of HeCon Ab | B14 |
| 167 % of HeCon Ab | B15 |
| 96.7 % of HeCon Ab | B16 |

molecular target: T4, FcγRIIIa extracellular domain with C-terminal His tag (human, UniProt P08637 17-208); experiment: as above
T4 construct: extracellular domain; also called FcgRIIIa; 3a; not shown: His tag at the C terminus
T4 sequence (P08637 17-208): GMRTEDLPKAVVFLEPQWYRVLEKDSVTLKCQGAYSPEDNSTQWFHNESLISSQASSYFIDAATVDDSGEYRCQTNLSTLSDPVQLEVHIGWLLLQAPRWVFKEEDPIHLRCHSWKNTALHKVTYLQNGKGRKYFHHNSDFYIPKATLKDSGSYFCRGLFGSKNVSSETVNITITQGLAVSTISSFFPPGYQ
Experimental: as §1, §2

| He/Con_3a (IIIa binding) | Binder |
| --- | --- |
| 43.8 % of HeCon Ab | B1 |
| 48.8 % of HeCon Ab | B2 |
| 25.4 % of HeCon Ab | B3 |
| 25.3 % of HeCon Ab | B4 |
| 22.1 % of HeCon Ab | B5 |
| 37.8 % of HeCon Ab | B6 |
| 70.7 % of HeCon Ab | B7 |
| 10.9 % of HeCon Ab | B8 |
| 17.2 % of HeCon Ab | B9 |
| 18.6 % of HeCon Ab | B10 |
| 24.9 % of HeCon Ab | B11 |
| 38.4 % of HeCon Ab | B12 |
| 31.9 % of HeCon Ab | B13 |
| 17.7 % of HeCon Ab | B14 |
| 71.2 % of HeCon Ab | B15 |
| 64.8 % of HeCon Ab | B16 |

molecular target: T2, FcγRIIa R; experiment: SPR; He/Con_2aR divided by He/Con_2b (FcγRIIb as reference)
Experimental: (§3) The heterodimerized antibodies He Abs in which one of the H chains was introduced with an alteration were assayed for their binding activities to each activating FcγR and inhibitory FcγR according to the method described in Example 4. […] The activating FcγRs in FIGS. 26, 27, 28, and 29 are FcγRIa, FcγRIIa (R), FcγRIIa (H), and FcγRIIIa, respectively.
as §1

| IIaR/IIb (He_2aR/2b) | Binder |
| --- | --- |
| 1.27 ratio | B17 |

molecular target: T2, FcγRIIa R; experiment: SPR (Biacore), antibody captured, FcγR as analyte; relative binding
Experimental: as §3, §1

| He/Con_2aR (IIaR binding) | Binder |
| --- | --- |
| 83 % of GpH7-A5/GpH7-B3/GpL16-k0 (=100) | B17 |

molecular target: T3, FcγRIIb; experiment: as above
Experimental: as §3, §1

| He/Con_2b (IIb binding) | Binder |
| --- | --- |
| 65.2 % of GpH7-A5/GpH7-B3/GpL16-k0 (=100) | B17 |
